Experimental data reported in patent publication US20060019335A1, “Compositions and methods to promote c-IAP autodegradation” (priority 2004, published 2006).

Key:
Livin β = target: T1, Livin β (Homo sapiens, UniProt Q96CA5); assay: Co-transfection of HeLa cells with Livin β and Smac plasmids, Western blot; type: cell-based; settings: data not shown
T1 construct: expressed in transfected cells; host or cells: HeLa
T1 sequence (Q96CA5 1-280 isoform Q96CA5-2): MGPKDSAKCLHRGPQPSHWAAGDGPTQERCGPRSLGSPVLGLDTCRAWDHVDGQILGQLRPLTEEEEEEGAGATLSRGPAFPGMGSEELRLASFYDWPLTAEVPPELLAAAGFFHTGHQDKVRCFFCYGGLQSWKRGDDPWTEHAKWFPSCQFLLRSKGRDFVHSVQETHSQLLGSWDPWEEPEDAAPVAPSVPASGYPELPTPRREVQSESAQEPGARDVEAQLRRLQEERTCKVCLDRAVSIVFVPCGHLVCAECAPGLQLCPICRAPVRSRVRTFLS
Method: Transfection of cultured Cells—HeLa cells were grown in DMEM supplemented with 10% fetal bovine serum. Cells were seeded onto 6-well plates the day before transfection and transfected at 70% confluence by using Lipofectin combined with Plus reagent (Invitrogen) according to the manufacture's protocols. The IAP expression plasmids (3 μg each for c-IAP1, c-IAP2 and XIAP, and 250 ng each for Livin αand Livin β) together with 2.5 μg of Smac expression plasmids or pcDNA3.1(−) blank plasmid were used for single-well transfection in the absence of antibiotics. The cells were harvested 12 hours after the transfection and lysed with 0.5% CHAPS in 20 mM HEPES (pH 7.4), 10 mM KCl, 1 mM MgCl2 and 1 mM DTT. The lysates were centrifuged and the protein concentrations of the supernatants were quantified by the modified Bradford method (36).
Western Blot analysis—Proteins were resolved by SDS-PAGE and transferred to nitrocellulose filters. The filters were blocked with 5% milk and probed with antibodies as indicated. The signals were visualized with the enhanced chemiluminescence method.
In the current study, Livin was also transiently expressed in HeLa cells to determine the ubiquitylation activity (see FIG. 3B). Briefly, Livin α WT or H269A mutant plasmids together with Smac WT or Smac ΔA mutant, or with pcDNA3.1(−) blank plasmid, were co-transfected into HeLa cells. […]

XIAP = XIAP (Homo sapiens, UniProt P98170); assay: In vitro ubiquitylation assay of purified XIAP; type: biochemical
Method: In vitro ubiquitylation assays—In vitro ubiquitylation assays were carried out as previously described (29). IAP proteins (200 nM) were incubated with or without Smac polypeptide for 2 hours at 30° C. in a reaction system containing 50 mM Tris-HCl (pH 7.5), 50 mM NaCl, 2 mM Mg-ATP, 20 μM mammalian ubiquitin, 100 nM rabbit ubiquitin-activating enzyme (E1) and 400 nM of recombinant human ubiquitin-conjugating enzymes (E2). The reactions were stopped by adding equal volumes of 2×SDS sample loading buffer followed by Western Blot analysis.
To determine whether Smac promotes auto-ubiquitylation of XIAP, purified XIAP (without tag) was incubated for 2 hours at 30° C. either with or without different concentrations of Smac or with Smac ΔA in the reconstituted ubiquitylation reaction system (Ub Mix) consisting of 50 mM Tris-HCl (pH 7.5), 50 mM NaCl, 2 mM Mg-ATP, 20 μM mammalian ubiquitin, 100 nM rabbit ubiquitin-activating enzyme (E1) and 400 nM UbCH6 (E2). The reactions were stopped by adding equal volumes of 2×SDS sample loading buffer and the products were subjected to SDS-PAGE followed by immunoblotting with anti-XIAP antibody. The purified XIAP was active in directing poly-ubiquitylation. But the auto-ubiquitylation of XIAP was not enhanced by Smac.

XIAP, sequence (P98170 whole entry): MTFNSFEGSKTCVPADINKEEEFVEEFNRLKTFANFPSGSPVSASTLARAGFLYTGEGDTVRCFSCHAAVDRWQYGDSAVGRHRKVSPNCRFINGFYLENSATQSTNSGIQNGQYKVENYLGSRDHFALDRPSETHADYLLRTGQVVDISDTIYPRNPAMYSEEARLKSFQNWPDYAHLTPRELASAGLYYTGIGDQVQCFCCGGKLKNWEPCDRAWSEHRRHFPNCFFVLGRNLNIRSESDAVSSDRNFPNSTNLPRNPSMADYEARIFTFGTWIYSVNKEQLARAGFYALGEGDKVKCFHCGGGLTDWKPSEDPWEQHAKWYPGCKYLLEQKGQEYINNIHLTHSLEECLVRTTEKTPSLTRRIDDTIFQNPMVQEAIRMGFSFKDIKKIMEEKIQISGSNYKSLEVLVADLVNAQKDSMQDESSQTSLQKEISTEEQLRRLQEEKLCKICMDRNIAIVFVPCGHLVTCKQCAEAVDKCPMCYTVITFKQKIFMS

B1: Smac: wild type (WT) Smac polypeptide from Homo sapiens, SEQ ID NO 1, 239 amino acids; second mitochondria-derived activator of caspase (protein, listed as Homo sapiens)
chain: MAALKSWLSRSVTSFFRYRQCLCVPVVANFKKRCFSELIRPWHKTVTIGFGVTLCAVPIAQKSEPHSLSSEALMRRAVSLVTDSTSTFLSQTTYALIEAITEYTKAVYTLTSLYRQYTSLLGKMNSEEEDEVWQVIIGARAEMTSKHQEYLKLETTWMTAVGLSEMAAEAAYQTGADQASITARNHIQLVKLQVEEVHQLSRKAETKLAEAQIEELRQKTQEEGEERAESEQEAYLRED
Q: Which results are given for B1?
A: transfection results of Livin β (auto-ubiquitylation, degradation) (Livin β): substantially similar to that of Livin α; amount of ubiquitylated forms of XIAP with a high molecular weight of ~150 kDa (XIAP; UbCH6 as E2, FIG. 6): slightly reduced; auto-ubiquitylation of XIAP in vitro (XIAP; purified XIAP without tag, UbCH6 as E2, 2 hours at 30° C., FIG. 6): not enhanced
